In US7976845:

Key:
[1] = target: recombinant gB-CMV polyepitope protein (Human cytomegalovirus (AD169)); test: direct ELISA; plate coated with concentrated recombinant protein diluted 1:50; 2F12 at 1:8000; HRP anti-mouse Ig, TMB
[2] = target: recombinant gB-CMV polyepitope protein (Human cytomegalovirus (AD169)); test: direct ELISA; plate coated with concentrated recombinant protein diluted 1:100; 2F12 at 1:8000; HRP anti-mouse Ig, TMB
[3] = target: recombinant gB-CMV polyepitope protein (Human cytomegalovirus (AD169)); test: direct ELISA; plate coated with concentrated recombinant protein diluted 1:200; 2F12 at 1:8000; HRP anti-mouse Ig, TMB
[4] = target: recombinant gB-CMV polyepitope protein (Human cytomegalovirus (AD169)); test: direct ELISA; plate coated with concentrated recombinant protein diluted 1:400; 2F12 at 1:8000; HRP anti-mouse Ig, TMB
[5] = target: recombinant gB-CMV polyepitope protein (Human cytomegalovirus (AD169)); test: direct ELISA; plate coated with concentrated recombinant protein diluted 1:800; 2F12 at 1:8000; HRP anti-mouse Ig, TMB
[6] = target: recombinant gB-CMV polyepitope protein (Human cytomegalovirus (AD169)); test: direct ELISA; plate coated with concentrated recombinant protein diluted 1:1600; 2F12 at 1:8000; HRP anti-mouse Ig, TMB
[7] = target: recombinant gB-CMV polyepitope protein (Human cytomegalovirus (AD169)); test: direct ELISA; plate coated with concentrated recombinant protein diluted 1:3200; 2F12 at 1:8000; HRP anti-mouse Ig, TMB
[8] = target: recombinant gB-CMV polyepitope protein (Human cytomegalovirus (AD169)); test: direct ELISA; plate coated with concentrated recombinant protein diluted 1:6400; 2F12 at 1:8000; HRP anti-mouse Ig, TMB
[9] = target: recombinant gB-CMV polyepitope protein (Human cytomegalovirus (AD169)); test: direct ELISA; plate coated with concentrated recombinant protein diluted 1:12800; 2F12 at 1:8000; HRP anti-mouse Ig, TMB
[10] = target: recombinant gB-CMV polyepitope protein (Human cytomegalovirus (AD169)); test: direct ELISA; plate coated with concentrated recombinant protein diluted 1:25600; 2F12 at 1:8000; HRP anti-mouse Ig, TMB
[11] = target: recombinant gB-CMV polyepitope protein (Human cytomegalovirus (AD169)); test: direct ELISA; plate coated with concentrated recombinant protein diluted 1:51200; 2F12 at 1:8000; HRP anti-mouse Ig, TMB
[12] = target: recombinant gB-CMV polyepitope protein (Human cytomegalovirus (AD169)); test: direct ELISA; plate coated with concentrated recombinant protein diluted 1:102400; 2F12 at 1:8000; HRP anti-mouse Ig, TMB

Q: With “anti-gB monoclonal antibody 2F12 (Abcam, UK)” as the substance, how does the OD [1] read?
A: Its OD is 0.69 OD.

Q: What about the OD [2] of the same substance?
A: The OD was 0.548 OD.

Q: And the OD [3]?
A: The OD was 0.408 OD.

Q: What about the OD [4] of the same substance?
A: Its OD is 0.59 OD.

Q: What about the OD [5] of the same substance?
A: Its OD is 0.486 OD.

Q: What about the OD [6] of the same substance?
A: The OD was 0.379 OD.

Q: And the OD [7]?
A: Its OD is 0.4 OD.

Q: What about the OD [8] of the same substance?
A: Its OD is 0.317 OD.

Q: And the OD [9]?
A: The OD was 0.249 OD.

Q: And the OD [10]?
A: Its OD is 0.277 OD.

Q: And the OD [11]?
A: The OD was 0.19 OD.

Q: What about the OD [12] of the same substance?
A: The OD was 0.144 OD.
